The target in data set [1] is GST fusion protein with full-length S. aureus WalR (1–233) (Staphylococcus aureus NCTC8325) (UniProt Q2G2U6).
Data set [2] has as its target S. mutans WalR full-length (Streptococcus mutans UA159). As to the kind of experiment: ITC; MicroCal iTC200, 25°C; 500 μM WalK (196–450) WT or CTT mutant in the syringe, 20 μM full-length WalR in the cell; 20 mM Tris-HCl pH 8.0, 200 mM NaCl, 20% glycerol. On the technique in general: ITC needs no label: the signal is the heat of the interaction.
The target of data set [3] is T1, S. aureus WalK (364–608) WT (Staphylococcus aureus NCTC8325, UniProt Q2G2U4 364-608).
T1 construct: cloned in pET-His; source: E. coli BL21 (DE3), purified (Ni-NTA, Superdex 200); not shown: His tag, N-terminal, kept
T1 sequence (looked up): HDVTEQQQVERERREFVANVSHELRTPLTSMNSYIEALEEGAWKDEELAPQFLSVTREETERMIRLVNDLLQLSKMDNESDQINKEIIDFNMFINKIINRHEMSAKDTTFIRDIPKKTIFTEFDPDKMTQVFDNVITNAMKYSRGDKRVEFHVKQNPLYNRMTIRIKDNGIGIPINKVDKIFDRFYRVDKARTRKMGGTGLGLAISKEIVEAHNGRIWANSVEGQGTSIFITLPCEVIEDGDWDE
Kind of data set: pull-down; GST-tagged WalR protein held on glutathione agarose beads, His-tagged WalK as prey, equal molar amounts (~3 μl of 50 μM each) in 1 ml of 20 mM Tris-HCl pH 8.0, 200 mM NaCl, 5% glycerol, 2 mM EDTA, 2 h at 4°C; SDS-PAGE stained with CBB. The following applies: both partners purified.

The target in data set [4] is T2, S. aureus WalK (364–608) D605A (Staphylococcus aureus NCTC8325, UniProt Q2G2U4 364-608, D605A).
T2 construct: source: E. coli BL21 (DE3), purified (Ni-NTA, Superdex 200); not shown: His tag, N-terminal, kept
T2 sequence: T1 sequence (looked up) with D242A
The data set is described as above. As to conditions: both partners purified.

A further data set has as its target WalK (196-450) (Streptococcus mutans UA159, UniProt Q8DT64 196-450). As to the kind of experiment: EMSA. As to conditions: protein: recombinant; tags: N-terminal His. In general terms: A gel shift assay detects complexes by their altered migration in electrophoresis.
The next data set addresses WalR full-length (Streptococcus mutans UA159, UniProt Q93MY4 1-235). As to the kind of experiment: EMSA; 20 uM DNA; complex released by increasing WalK 196-450. As to conditions: protein: recombinant; chain copies: 2.
The target of a further data set is WalR DBD (Streptococcus mutans UA159, UniProt Q93MY4 129-235). Kind of data set: EMSA; 20 uM DNA; complex released by WalK 196-450 (W443A and delta-tail WalK compete less). The following applies: protein: recombinant; chain copies: 2.

The Kd is the concentration at which binding is half-saturated. Low values mean tighter binding, high ones weaker binding.

Changes are numbered by the printed parent chain.

“S. aureus WalK (364–608) D607A (from UniProt Q2G2U4 364-608) (domain or fragment)” registered a phosphotransferase activity of S. aureus WalK (364–608) with WalR (loss of phospho-WalK, at 30 min) in data set [1] of 2 ×.
Molecule “S. aureus WalK (364–608) W606A (from UniProt Q2G2U4 364-608) (domain or fragment)” showed a phosphotransferase activity of S. aureus WalK (364–608) with WalR (loss of phospho-WalK, at 30 min) in data set [1] of 2 ×.
“S. mutans WalK (196–450) WT (domain or fragment)” gave a dissociation constant Kd in data set [2] of 1210 nM.

B1: GST fusion protein with full-length S. aureus WalR (1–233) (natural protein, Staphylococcus aureus NCTC8325, UniProt Q2G2U6 1-233, looked up)
chain: MARKVVVVDDEKPIADILEFNLKKEGYDVYCAYDGNDAVDLIYEEEPDIVLLDIMLPGRDGMEVCREVRKKYEMPIIMLTAKDSEIDKVLGLELGADDYVTKPFSTRELIARVKANLRRHYSQPAQDTGNVTNEITIKDIVIYPDAYSIKKRGEDIELTHREFELFHYLSKHMGQVMTREHLLQTVWGYDYFGDVRTVDVTIRRLREKIEDDPSHPEYIVTRRGVGYFLQQHE
notes: cloned in pET-GST; also called GST-WalR; source: E. coli BL21 (DE3), purified (glutathione agarose, Superdex 200); not shown: GST, N-terminal, kept
Turning to B1, the binding result in data set [3] and in data set [4] was “binds” throughout.

B2: gtfC promoter 25-mer (dsDNA)
DNA 1: GTTTGTTATAAAAGTGTTACAATAC
DNA 2: GTATTGTAACACTTTTATAACAAAC
As to B2, the binding result is listed as “no binding” with WalK (196-450), “binds” in the data set with WalR full-length and “binds” with WalR DBD.

Values taken from article PMC9087282, “The W-Acidic Motif of Histidine Kinase WalK Is Required for Signaling and Transcriptional Regulation in Streptococcus mutans” (Frontiers in Microbiology, 2022).
